Data reported in US20250019440A1 (Zymeworks, published 2025).
Positions count from the first letter of the chain named.

T1: Mouse CLDN18 A2.1 (mouse, UniProt P56857 10-264)
T1 construct: On transfected HEK293-6E cells; also called Mouse CLDN18 2.1; mouse CLDN18.2 ortholog
T1 chain: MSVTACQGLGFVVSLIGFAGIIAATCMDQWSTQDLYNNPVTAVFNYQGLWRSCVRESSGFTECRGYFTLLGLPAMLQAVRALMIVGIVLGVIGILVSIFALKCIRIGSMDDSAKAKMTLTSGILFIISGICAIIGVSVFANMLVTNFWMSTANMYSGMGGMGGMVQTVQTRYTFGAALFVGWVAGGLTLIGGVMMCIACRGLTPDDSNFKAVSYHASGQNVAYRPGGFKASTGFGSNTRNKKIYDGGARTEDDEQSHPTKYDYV

T2: Cynomolgus monkey CLDN18 (cynomolgus monkey)
T2 construct: On transfected HEK293-6E cells; also called Cyno CLDN18; cynomologus monkey CLDN18.2 ortholog
T2 chain: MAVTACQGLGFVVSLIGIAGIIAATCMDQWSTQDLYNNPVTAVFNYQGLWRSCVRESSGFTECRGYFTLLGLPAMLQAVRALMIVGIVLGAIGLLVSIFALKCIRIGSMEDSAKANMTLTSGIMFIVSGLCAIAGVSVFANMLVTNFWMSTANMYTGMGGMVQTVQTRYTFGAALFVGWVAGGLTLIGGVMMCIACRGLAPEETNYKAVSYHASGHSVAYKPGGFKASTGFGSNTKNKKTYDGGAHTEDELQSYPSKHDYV

B1: v37407 (antibody, human IgG1, V domains shown)
VH: QVQLVESGGGLVQPGGSLRLSCSVSGIDLSSNPMIWVRQAPGKGLEYIGIIDTDGSTYYADWAKGRFTISKDSTTVYLQMNSLRAEDTAVYYCARRLHGSSNGYYDDLWGQGTLVTVSS
VL: DGQMTQSPSSVSASVGDRVTITCQASQSIYSYLSWYQQKPGQRPKLLIYKASTLASGVPSRFSGSGSGTDFTLTISSVQPEDFATYYCQQGYTVTNVDKNTFGGGTKVEIK
notes: Humanized, recombinant human IgG1-based monoclonal antibody; also called H4-L4
B2: v37409 (antibody, human IgG1, V domains shown)
VH: QVQLVESGGGLVQPGGSLRLSCSVSGIDLSSNPMIWVRQAPGKGLEYIGIIDTDGSTYYADWAKGRFTISKDSSKNTVYLQMNSLRAEDTAVYYCARRLHGSSNGYYDDLWGQGTLVTVSS
VL: B1 VL
notes: Humanized, recombinant human IgG1-based monoclonal antibody; also called H2-L4
B3: v37411 (antibody, human IgG1, V domains shown)
VH: B1 VH with E46Q, M80I, L83P
VL: B1 VL
notes: Humanized, recombinant human IgG1-based monoclonal antibody; also called H5-L4
B4: v37408 (antibody, human IgG1, V domains shown)
VH: B1 VH
VL: B1 VL with F83A, I110V
notes: Humanized, recombinant human IgG1-based monoclonal antibody; also called H4-L2
B5: v37410 (antibody, human IgG1, V domains shown)
VH: B2 VH with E46Q
VL: B1 VL
notes: Humanized, recombinant human IgG1-based monoclonal antibody; also called H3-L4
B6: v38740 (other)
heavy 1: EVQLVESGGGLVQPGGSLRLSCAASGVTFNYYGMSWIRQAPGKGLEWVASITSSGGRIYYPDSVKGRFTISRENTQKTLYLQMNSLRAEDTAVYYCTLDGRDGWVAYWGQGTLVTVSSASTKGPSVFPLAPSSKSTSGGTAALGCLVKDYFPEPVTVSWNSGALTSGVHTFPAVLQSSGLYSLSSVVTVPSSSLGTQTYICNVNHKPSNTKVDKKVEPKSCDKTHTCPPCPAPEAAGGPSVFLFPPKPKDTLMISRTPEVTCVVVSVSHEDPEVKFNWYVDGVEVHNAKTKPREEQYNSTYRVVSVLTVLHQDWLNGKEYKCKVSNKALPAPIEKTISKAKGQPREPQVYVYPPSRDELTKNQVSLTCLVKGFYPSDIAVEWESNGQPENNYKTTPPVLDSDGSFALVSKLTVDKSRWQQGNVFSCSVMHEALHNHYTQKSLSLSPGGGGGSGDRPWNPPTFSPALLVVTEGDNATFTCSFSNTSESFVLNWYRMSPSNQTDKLAAFPEDRSQPGQDARFRVTQLPNGRDFHMSVVRARRNDSGTYLCGAISLAPKAQIKESLRAELRVTE
light: NFMLTQPHSVSESPGKTVTISCKRNTGNIGSNYVNWYQQHEGSSPTTIIYRNDKRPDGVSDRFSGSIDRSSKSASLTISNLKTEDEADYFCQSYSSGFIFGGGTKLTVLGQPKAAPSVTLFPPSSEELQANKATLVCLISDFYPGAVTVAWKADSSPVKAGVETTTPSKQSNNKYAASSYLSLTPEQWKSHRSYSCQVTHEGSTVEKTVAPTECS
heavy 2: QVQLVESGGGLVQPGGSLRLSCSVSGIDLSSNPMIWVRQAPGKGLQYIGIIDTDGSTYYADWAKGRFTISKDSTTVYLQINSPRAEDTAVYYCARRLHGSSNGYYDDLWGQGTLVTVSSGGGGSGGGGSGGGGSGGGGSDGQMTQSPSSVSASVGDRVTITCQASQSIYSYLSWYQQKPGQRPKLLIYKASTLASGVPSRFSGSGSGTDFTLTISSVQPEDFATYYCQQGYTVTNVDKNTFGGGTKVEIKAAEPKSSDKTHTCPPCPAPEAAGGPSVFLFPPKPKDTLMISRTPEVTCVVVSVSHEDPEVKFNWYVDGVEVHNAKTKPREEQYNSTYRVVSVLTVLHQDWLNGKEYKCKVSNKALPAPIEKTISKAKGQPREPQVYVLPPSRDELTKNQVSLLCLVKGFYPSDIAVEWESNGQPENNYLTWPPVLDSDGSFFLYSKLTVDKSRWQQGNVFSCSVMHEALHNHYTQKSLSLSPG
notes: CD3 Fab x Cldn18.2 scFv Fc, wildtype (WT) PD-1 attached to HC1 (C-term)
B7: v38741 (other)
heavy 1: EVQLVESGGGLVQPGGSLRLSCAASGVTFNYYGMSWIRQAPGKGLEWVASITSSGGRIYYPDSVKGRFTISRENTQKTLYLQMNSLRAEDTAVYYCTLDGRDGWVAYWGQGTLVTVSSASTKGPSVFPLAPSSKSTSGGTAALGCLVKDYFPEPVTVSWNSGALTSGVHTFPAVLQSSGLYSLSSVVTVPSSSLGTQTYICNVNHKPSNTKVDKKVEPKSCDKTHTCPPCPAPEAAGGPSVFLFPPKPKDTLMISRTPEVTCVVVSVSHEDPEVKFNWYVDGVEVHNAKTKPREEQYNSTYRVVSVLTVLHQDWLNGKEYKCKVSNKALPAPIEKTISKAKGQPREPQVYVYPPSRDELTKNQVSLTCLVKGFYPSDIAVEWESNGQPENNYKTTPPVLDSDGSFALVSKLTVDKSRWQQGNVFSCSVMHEALHNHYTQKSLSLSPGGGGGSGQVQLVESGGGLVQPGGSLRLSCSVSGIDLSSNPMIWVRQAPGKGLQYIGIIDTDGSTYYADWAKGRFTISKDSTTVYLQINSPRAEDTAVYYCARRLHGSSNGYYDDLWGQGTLVTVSSGGGGSGGGGSGGGGSGGGGSDGQMTQSPSSVSASVGDRVTITCQASQSIYSYLSWYQQKPGQRPKLLIYKASTLASGVPSRFSGSGSGTDFTLTISSVQPEDFATYYCQQGYTVTNVDKNTFGGGTKVEIK
light: NPPTFSPALLVVTEGDNATFTCSFSNTSESFRLVWHRESPGYETDTLASFPEDRSTPLPDARFRVTQLPNGRDFHMSVVRARRNDSGTYVCGAIAFHPVIQIKESLRAELRVTEGGGGSGNFMLTQPHSVSESPGKTVTISCKRNTGNIGSNYVNWYQQHEGSSPTTIIYRNDKRPDGVSDRFSGSIDRSSKSASLTISNLKTEDEADYFCQSYSSGFIFGGGTKLTVLGQPKAAPSVTLFPPSSEELQANKATLVCLISDFYPGAVTVAWKADSSPVKAGVETTTPSKQSNNKYAASSYLSLTPEQWKSHRSYSCQVTHEGSTVEKTVAPTECS
heavy 2: B6 heavy 2
B8: v38744 (other)
heavy 1: B7 heavy 1
light: NPPTFSPALLVVTEGDNATFTCSFSNTSESFVLNWYRMSPSNQTDKLAAFPEDRSQPGQDARFRVTQLPNGRDFHMSVVRARRNDSGTYLCGAISLAPKAQIKESLRAELRVTEGGGGSGNFMLTQPHSVSESPGKTVTISCKRNTGNIGSNYVNWYQQHEGSSPTTIIYRNDKRPDGVSDRFSGSIDRSSKSASLTISNLKTEDEADYFCQSYSSGFIFGGGTKLTVLGQPKAAPSVTLFPPSSEELQANKATLVCLISDFYPGAVTVAWKADSSPVKAGVETTTPSKQSNNKYAASSYLSLTPEQWKSHRSYSCQVTHEGSTVEKTVAPTECS
heavy 2: B6 heavy 2
notes: CD3 Fab with C-term Cldn18.2 scFv x Cldn18.2 scFv Fc with wildtype (WT) PD-1 attached to CD3 LC (N-term)
B9: v38743 (other)
heavy 1: B7 heavy 1
light: B8 light with A100L
heavy 2: B6 heavy 2

How the values were obtained:
[1] = biological target: T1, Mouse CLDN18 A2.1; test: FACS on transfected HEK293-6E cells, 4 parameter logistic fit
[2] = biological target: T2, Cynomolgus monkey CLDN18; test: as above
[3] = biological target: T3, Human CLDN18.2 (human); test: as above
T3 construct: On transfected HEK293-6E cells; also called Claudin18.2

[4] = biological target: T4, Human CLDN18.1 (human, UniProt P56856 1-261); test: FACS, Expi293F supernatants on transfected HEK293-6E cells
T4 construct: On transfected HEK293-6E cells

[5] = biological target: T5, Human PD-L1 (human, UniProt Q9NZQ7 19-239); test: SPR, PD-L1 amine-coupled, variant as analyte, 1:1 model
T5 construct: Amine-coupled to a CM5 chip for SPR; also called recombinant human PD-L1

[6] = biological target: Human CD3 (recombinant) (human); test: SPR, CD3 amine-coupled, variant as analyte, 1:1 model
Sequence of Human CD3 (recombinant) (human) (chain, as listed by the source): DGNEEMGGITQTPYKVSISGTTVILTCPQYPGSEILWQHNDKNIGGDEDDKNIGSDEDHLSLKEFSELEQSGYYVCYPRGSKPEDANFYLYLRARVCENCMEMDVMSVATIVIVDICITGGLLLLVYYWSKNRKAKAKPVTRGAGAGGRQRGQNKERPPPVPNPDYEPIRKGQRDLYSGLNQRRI

T5 sequence (Q9NZQ7 19-239 limits assumed): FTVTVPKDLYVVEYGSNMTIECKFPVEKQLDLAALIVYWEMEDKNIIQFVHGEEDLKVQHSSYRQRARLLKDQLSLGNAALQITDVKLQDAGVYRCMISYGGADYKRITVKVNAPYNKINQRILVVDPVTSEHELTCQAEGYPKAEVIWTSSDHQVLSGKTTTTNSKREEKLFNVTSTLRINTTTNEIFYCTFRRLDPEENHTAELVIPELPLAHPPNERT
T4 sequence (P56856 whole entry): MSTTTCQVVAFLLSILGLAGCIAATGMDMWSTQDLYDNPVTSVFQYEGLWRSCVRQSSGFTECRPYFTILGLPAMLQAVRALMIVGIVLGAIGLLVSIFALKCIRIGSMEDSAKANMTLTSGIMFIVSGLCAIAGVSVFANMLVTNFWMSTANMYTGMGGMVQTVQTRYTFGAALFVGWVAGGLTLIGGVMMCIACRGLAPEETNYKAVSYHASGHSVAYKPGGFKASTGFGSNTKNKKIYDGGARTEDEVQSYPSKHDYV

| Binder | Bmax [1] | EC50 [1] [nM] | Bmax [2] | EC50 [2] [nM] | Bmax [3] | EC50 [3] [nM] | binding result [4] | Kd [5] [nM] | Kd [6] [nM] |
| --- | --- | --- | --- | --- | --- | --- | --- | --- | --- |
| B1 | 1540 | 0.8 | 1410 | 0.24 | 2040 | 1.54 | no binding | – | – |
| B2 | 1530 | 0.89 | 1500 | 0.35 | 1960 | 1.22 | no binding | – | – |
| B3 | 1790 | 1.03 | 1730 | 0.37 | 2170 | 1.05 | no binding | – | – |
| B4 | 1920 | 2.65 | 1520 | 0.36 | 2190 | 1.87 | no binding | – | – |
| B5 | 1690 | 1.02 | 1500 | 0.31 | 1910 | 0.97 | no binding | – | – |
| B6 | – | – | – | – | – | – | – | 510 | 30 |
| B7 | – | – | – | – | – | – | – | 95 | 18 |
| B8 | – | – | – | – | – | – | – | 1900 | 190 |
| B9 | – | – | – | – | – | – | – | 220 | 120 |
